Where two headings read alike, the source gives them in different places.

Holding throughout (test): HEK293-F co-expression, Protein A purification, non-reducing SDS-PAGE densitometry
Experiment [1] deals with scFv-FcCH3A, A107 (K370E/K409W) (human) [IgG part: P0DOX5].
For experiment [2], the target named is scFv-FcCH3A, A107w/oW-VT (K370E) (human) [IgG part: P0DOX5].
The target is the same in experiment [3]. The source holds these as a separate data set.
For experiment [4], the target named is scFv-FcCH3A, A109 (K370M/K409W) (human) [IgG part: P0DOX5].
Experiment [5] has as its target scFv-FcCH3A, A109w/oW-VT (K370M) (human) [IgG part: P0DOX5].
In experiment [6] the target is scFv-FcCH3A, A146w/oW-VT (K370D) (human) [IgG part: P0DOX5].
The target in experiment [7] is scFv-FcCH3A, A205 (E357D/S364W/K370E) (human) [IgG part: P0DOX5].
Experiment [8] addresses scFv-FcCH3A, A210 (E357A/S364Y/K370E) (human) [IgG part: P0DOX5].
The target of experiment [9] is scFv-FcCH3A, A216 (E357G/S364W/K370E) (human) [IgG part: P0DOX5].
Experiment [10] deals with scFv-FcCH3A, A241 (E357N/S364W/K370E) (human) [IgG part: P0DOX5].
For experiment [11], the target named is scFv-FcCH3A, B121 (D399E/K409W) (human) [IgG part: P0DOX5].
Experiment [12] deals with scFv-FcCH3A, B135 (D399L/K409W) (human) [IgG part: P0DOX5].
In experiment [13] the target is scFv-FcCH3A, B168 (D399L/K409W) (human) [IgG part: P0DOX5].
Experiment [14] has as its target scFv-FcCH3A, B168w/oW-VT (D399L) (human) [IgG part: P0DOX5].
Experiment [15] shares this target. The source holds these as a separate data set.
Experiment [16] deals with scFv-FcCH3A, B212 (K392I/D399L) (human) [IgG part: P0DOX5].
In experiment [17] the target is scFv-FcCH3A, B215 (K392R/K409R/D399L) (human) [IgG part: P0DOX5].
Experiment [18] addresses scFv-FcCH3A, B235 (K392C/D399L) (human) [IgG part: P0DOX5].
Experiment [19] deals with scFv-FcCH3A, B239 (K392L/D399L) (human) [IgG part: P0DOX5].
Experiment [20] deals with scFv-FcCH3A, B240 (K392S/K409R/D399L) (human) [IgG part: P0DOX5].
In experiment [21] the target is scFv-FcCH3A, B256 (K392N/D399L) (human) [IgG part: P0DOX5].
Experiment [22] addresses scFv-FcCH3A, EW-RVT (K360E/K409W) (human).
Experiment [23] shares this target. This is another data set of the same source.
The target of experiment [24] is scFv-FcCH3A, W-VT (K409W) (human) [IgG part: P0DOX5].

In turn, “scFv-FcCH3A, A107 (K370E/K409W) (from UniProt P0DOX5 227-449) (Fc fusion)” registered a (scFv-Fc)2 (homodimer)(%) in [1] of 4.2%. In the case of “scFv-FcCH3A, A107w/oW-VT (K370E) (from UniProt P0DOX5 227-449) (Fc fusion)”, the (scFv-Fc)2 (homodimer)(%) in [2] and in experiment [3] was 21.3% each time. In the case of “scFv-FcCH3A, A109 (K370M/K409W) (from UniProt P0DOX5 227-449) (Fc fusion)”, the (scFv-Fc)2 (homodimer)(%) in experiment [4] was determined as 0.5%. Take “scFv-FcCH3A, A109w/oW-VT (K370M) (from UniProt P0DOX5 227-449) (Fc fusion)”: the (scFv-Fc)2 (homodimer)(%) in experiment [5] stood at 5.6%. For “scFv-FcCH3A, A146w/oW-VT (K370D) (from UniProt P0DOX5 227-449) (Fc fusion)”, the (scFv-Fc)2 (homodimer)(%) in experiment [6] is 4.6%.

Regarding “scFv-FcCH3A, A205 (E357D/S364W/K370E) (from UniProt P0DOX5 227-449) (Fc fusion)”, the (scFv-Fc)2 (homodimer)(%) in experiment [7] was determined as 1%.

As for “scFv-FcCH3A, A210 (E357A/S364Y/K370E) (from UniProt P0DOX5 227-449) (Fc fusion)”, the (scFv-Fc)2 (homodimer)(%) in experiment [8] came to 9.9%. In turn, “scFv-FcCH3A, A216 (E357G/S364W/K370E) (from UniProt P0DOX5 227-449) (Fc fusion)” returned a (scFv-Fc)2 (homodimer)(%) in [9] of 1.5%.

In [10], “scFv-FcCH3A, A241 (E357N/S364W/K370E) (from UniProt P0DOX5 227-449) (Fc fusion)” showed a (scFv-Fc)2 (homodimer)(%) of 15.7%.

In the case of “scFv-FcCH3A, B121 (D399E/K409W) (from UniProt P0DOX5 227-449) (Fc fusion)”, the (scFv-Fc)2 (homodimer)(%) in experiment [11] stood at 1.5%. “scFv-FcCH3A, B135 (D399L/K409W) (from UniProt P0DOX5 227-449) (Fc fusion)” came in with a (scFv-Fc)2 (homodimer)(%) in experiment [12] of 4.1%.

In [13], “scFv-FcCH3A, B168 (D399L/K409W) (from UniProt P0DOX5 227-449) (Fc fusion)” gave a (scFv-Fc)2 (homodimer)(%) of 1.2%. Turning to “scFv-FcCH3A, B168w/oW-VT (D399L) (from UniProt P0DOX5 227-449) (Fc fusion)”, the (scFv-Fc)2 (homodimer)(%) in experiment [14] came to 1.6%; in experiment [15], 1.5%. In turn, “scFv-FcCH3A, B212 (K392I/D399L) (from UniProt P0DOX5 227-449) (Fc fusion)” gave a (scFv-Fc)2 (homodimer)(%) in experiment [16] of 0.9%. “scFv-FcCH3A, B215 (K392R/K409R/D399L) (from UniProt P0DOX5 227-449) (Fc fusion)” returned a (scFv-Fc)2 (homodimer)(%) in experiment [17] of 1.9%.

Turning to “scFv-FcCH3A, B235 (K392C/D399L) (from UniProt P0DOX5 227-449) (Fc fusion)”, in [18], the (scFv-Fc)2 (homodimer)(%) is 3.7%.

In the case of “scFv-FcCH3A, B239 (K392L/D399L) (from UniProt P0DOX5 227-449) (Fc fusion)”, in experiment [19], the (scFv-Fc)2 (homodimer)(%) is 3.4%. “scFv-FcCH3A, B240 (K392S/K409R/D399L) (from UniProt P0DOX5 227-449) (Fc fusion)” gave a (scFv-Fc)2 (homodimer)(%) in [20] of 4.8%. Substance “scFv-FcCH3A, B256 (K392N/D399L) (from UniProt P0DOX5 227-449) (Fc fusion)” gave a (scFv-Fc)2 (homodimer)(%) in [21] of 3.9%. In the case of “scFv-FcCH3A, EW-RVT (K360E/K409W) (Fc fusion)”, the (scFv-Fc)2 (homodimer)(%) in experiment [22] and in experiment [23] was 0.5% in each case. Consider “scFv-FcCH3A, W-VT (K409W) (from UniProt P0DOX5 227-449) (Fc fusion)”, for which the (scFv-Fc)2 (homodimer)(%) in [24] was determined as 1.4%.

(Values after patent US20180346600A1.)
